The values below are quoted from earlier work in article PMC12455926.

The target in this data set is AXL (Homo sapiens) (UniProt P30530).

By Kd is commonly meant the constant that tells how readily two partners part at equilibrium. Consider Spike protein NTD (from UniProt P0DTC2), for which the Kd was 882 nM.
